Measurements: the nanobody polyreactivity screen of Harvey et al. (2022)

assay: yeast display, Sf9 membrane polyspecificity reagent, FACS + sequencing; frameworks hold sequencing errors
In short: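 After 36–48 hours of galactose induction, yeast (Saccharomyces cerevisiae BJ5465) displaying a synthetic nanobody library were stained at 4 °C for 1 hour with 10% biotinylated, detergent-solubilized Sf9 membrane reagent. Streptavidin microbeads enriched the stained cells before FACS sorting into low and high (top ~1%) gates on anti-HA and streptavidin fluorescence. Each clone's polyreactivity label reflects its gate of origin.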

Sequence	polyreactivity (PSR sort gate)
QVQLVESGGGLVQAGGSLRLSCAASGSTFGHYAMGWYRQAPGKERELVAAISWSGASTYYADSVKGRFTISRDNAKNTVYLQMNSLKPEDTAVYYCAAESYRQTYYVGDGYEDDYWGQGTQVTVSS	low polyreactivity
QVQLVESGGGLVQAGGSLRLSCAASGSTFGHYGMGWYRQAPGKERELVAAISYSGGSTSYADSVKGRFTISRDNAKNTVYLQMNSLKPEDTAVYYCATVRKRRYDYWGQGTQVTVSS	low polyreactivity
QVQLVESGGGLVQAGGSLRLSCAASGSTFGHYVMGWYRQATGKERELVAAISYNGGSTYYADSVKGRFTISRDNAKNTVYLQMNSLKPEDTAVYSCAARGSYSFYRRVDYWGQGTQVTVSS	high polyreactivity
QVQLVESGGGLVQAGGSLRLSCAASGSTFGKYAMGWYRQAPGKERELVAAITTGGNTSYADSVKGRFTISRDNANNTVYLQMNSLKPEDTAVYYCNAKRSFRVDYWGQGTQVTVSS	low polyreactivity
QVQLVESGGGLVQAGGSLRLSCAASGSTFGKYAMGWYRQAPGKERELVAAITTGGNTYYADSVKGRFTISRDNAKNSVYLQMNSLKPEDTAVYYCNAKRSFRVDYWGQGTQVTVSS	low polyreactivity
QVQLVESGGGLVQAGGSLRLSCAASGSTFGKYAMGWYRQAPGKERELVATITVSGGNTNYADSVKGRFTISRDNAKNTVYLQMNSLKPEDTAVYYCAARNYVAGHKYIMNYWGQGTQVNVSS	low polyreactivity
QVQLVESGGGLVQAGGSLRLSCAASGSTFGLNAMGWYRQAPGKERELVAAISYSDTTTYYADSVKGRFTISRDNAKNTVYLQMNSLKPEDTAVYYCAAEGDYAFLYDYWGQGTQVTVSS	high polyreactivity
QVQLVESGGGLVQAGGSLRLSCAASGSTFGLYAMGWYIQAPGKERELVAAISSRGSRTYYADSVKGRFTISRDNAKNTVYLQLNSLIPEDTAVYYCNALYASSVRHKVTYDYWGQGTQVTVSS	high polyreactivity
QVQLVESGGGLVQAGGSLRLSCAASGSTFGLYAMGWYRQAPGKERELVAAISYNTGRTYYADSVKGRFTISRDNAKNTVYLQMNSLKPEDTAVYYCAAEYFIWSYTRYEYWGQGTQVTVSS	high polyreactivity
QVQLVESGGGLVQAGGSLRLSCAASGSTFGNNAMGWYRPAPGKERELVAGIRRSSNTYYADSVKGRFTISRDNAKNTVYLQMNSLKPEDTAVYCCNADNILYGSTLDYWGQGTQVTVSS	low polyreactivity
QVQLVESGGGLVQAGGSLRLSCAASGSTFGNYAMGWYRQAPGKERELVAAISTSGGSTYYADSVKRRFTISRDNAKNTVYLQMNSLKPEDTAVYYCAKRLVRVRSRAVSDYYWGQGTQVTVSS	high polyreactivity
QVQLVESGGGLVQAGGSLRLSCAASGSTFGNYAMGWYRQAPGKERELVAVITSAGSTYYADSVKGRFTISRDNAKNTVYLQMNSLKPDDTAVYYCNTGKHVRYYYWGQGTQVTVSS	low polyreactivity
QVQLVESGGGLVQAGGSLRLSCAASGSTFGPNAMGWYRQAPGKERELVATITYSGGSTYYADSVKGRFTISRDNAKNTVYLQMNSLKPEDTAVYYCAAVYRYSRFTYGYWGQGTQVTVSS	high polyreactivity
QVQLVESGGGLVQAGGSLRLSCAASGSTFGPNPMGWYRQAPGKERELVAAISRAGRTYYADSVKGRFTISRDNAKNTVYLQMNSLKPEDTAVYYCNAGRSYHWRAGGEYDYWGQGTQVTVSS	low polyreactivity
QVQLVESGGGLVQAGGSLRLSCAASGSTFGPYAMGWYRQAPGKERELVAAISSGGSTYADSVKGRFTISRDNAKNTVYLQMNSLKPEDTAVYYCAKVHGRGVYSVEYDYWVQGTQVTVSS	low polyreactivity
QVQLVESGGGLVQAGGSLRLSCAASGSTFGPYAMGWYRQAPGKERELVAGISYGGGTTFYADSVKGRFTISRDNAKNTVYLQMNSLKPEDTAVYYCAATYRPNRYLEGYWGQGTQVTVSS	high polyreactivity
QVQLVESGGGLVQAGGSLRLSCAASGSTFGPYAMGWYRQAPGKERELVATINSSGSTNYADSVKGRFTISRDNAKNTVYLQMKSLKPEDTAVYYCATLHYYYWYDYWGQGTQVTVSS	low polyreactivity
QVQLVESGGGLVQAGGSLRLSCAASGSTFGPYAMGWYRQAPGKERELVATISGSRSSTYYADSVKGRFTISRDNAKNTVYLQMNSLKPEDTAVYYCATDLYFDLRYDYWGQGTQVTVSS	low polyreactivity
QVQLVESGGGLVQAGGSLRLSCAASGSTFGRNAMGWYRQAPGKERELVAAISWRSTRTYYADSVKGRFTISRDNAKNTVYLQMNSLKPEDTAVYYCAAAWRIWWYHRGEFDYWGQGTQVTVSS	high polyreactivity
QVQLVESGGGLVQAGGSLRLSCAASGSTFGRNAMGWYRQAPGKERELVATITKSGGSTYYADSVKGRFTISRDNAKNTVYLQMNSLKPEDTAVYYCAKGVYYKVLRGGGDYWGQGTQVTVSS	high polyreactivity
QVQLVESGGGLVQAGGSLRLSCAASGSTFGRNTMGWYRQAPGKERELVAAITSGDTTTYADSVKGRFTISRDNAKNTVYLQMNSLKPEVTAVYYCAVDPVRGRDYSWMDYWGQGTQVTVSS	low polyreactivity
QVQLVESGGGLVQAGGSLRLSCAASGSTFGRYAMGWYRQAPGKEREFVAAISCSGGSTYYADSVKGRFTISRDNAKNTVYLQMNSLNPEDTAVYYWARYSWRGLAEFESWGQGTQVTVSS	low polyreactivity
QVQLVESGGGLVQAGGSLRLSCAASGSTFGRYAMGWYRQAPGKERELFAAISWSGGSTYYADSVKGRFTISRDNAKNTVYLQMNSLKPEDTAVYYCNKAGIYIYGSYYWGQGTQVTVSS	high polyreactivity
QVQLVESGGGLVQAGGSLRLSCAASGSTFGRYAMGWYRQAPGKERELVAAITTSGGRTRYADSVKGRFTISRDNAKNPVYLQMNSLKPEDTAVYYCAASGAQGPDYDYWGQGTQVTVSS	low polyreactivity
QVQLVESGGGLVQAGGSLRLSCAASGSTFGRYAMGWYRQAPGKERELVATIDGSDGSTFYADSVKGRFTISRDNAKNTVYLQMNSLKPEDTAVYYCAAAWYDGYYYLVYYWGQGTQVTVSS	low polyreactivity
QVQLVESGGGLVQAGGSLRLSCAASGSTFGRYAMGWYRQAPGKESELVAAISSSGGRTYYADSVKGRFTISRDNAKNTVYLQMNSLKPEDTAVYYCAAPGAQGLGLRGAGLDYWGQGTQVTVSW	high polyreactivity
QVQLVESGGGLVQAGGSLRLSCAASGSTFGRYAMGWYRQATGKEMELVAAITRSGGRTYYADSVKGRFTISRDNAKNNVYLQMNSLKPEDTAVYYCAAVGNLYYTSHWQYDYWGQGTQVTVSS	high polyreactivity
QVQLVESGGGLVQAGGSLRLSCAASGSTFGRYTMGWYRQAPRKERELVAAITSGGGSTYYADSVKGRFTISRDNAKNTVYLQMNSLKPEDTAVYYCAARSLVQDHAYGYNYWGQGTQVTVSS	low polyreactivity
QVQLVESGGGLVQAGGSLRLSCAASGSTFGRYVMGWYRQAPGKERELVAAISKNAGSTYYADSVKGRFTISRDNAKNTVYLHMNSLKPEDTAVYYCAADWRTKGYDSLGQGTQVTVSS	high polyreactivity
QVQLVESGGGLVQAGGSLRLSCAASGSTFGRYVMGWYRQAPGKERELVAAISKNAGSTYYADSVKGRFTISRDNAKNTVYLQMNRLKPEDTAVYYCAADWRTKGYDSLGQGTQVTVSS	high polyreactivity
